Laboratory results as given in EP3964526A1.

Tests used:
[1] = target: recombinant human TNF (hTNF) (human) (UniProt P01375); test: cell-based or functional assay; conditions: scale: ratio EC50 ESBA105 / EC50 test, in mass units [ng/ml]
[2] = target: recombinant human VEGF165 (PeproTech EC Ltd.) (human) (UniProt P15692); test: SPR BIAcore T100, hVEGF165 amine-coupled on CM4 chip, scFv as analyte
[3] = target: VEGF (as used in the VEGFR competition ELISA); test: competition ELISA against hVEGR1, EC50 ratio to reference Luc
VEGF (as used in the VEGFR competition ELISA), sequence (P15692 whole entry): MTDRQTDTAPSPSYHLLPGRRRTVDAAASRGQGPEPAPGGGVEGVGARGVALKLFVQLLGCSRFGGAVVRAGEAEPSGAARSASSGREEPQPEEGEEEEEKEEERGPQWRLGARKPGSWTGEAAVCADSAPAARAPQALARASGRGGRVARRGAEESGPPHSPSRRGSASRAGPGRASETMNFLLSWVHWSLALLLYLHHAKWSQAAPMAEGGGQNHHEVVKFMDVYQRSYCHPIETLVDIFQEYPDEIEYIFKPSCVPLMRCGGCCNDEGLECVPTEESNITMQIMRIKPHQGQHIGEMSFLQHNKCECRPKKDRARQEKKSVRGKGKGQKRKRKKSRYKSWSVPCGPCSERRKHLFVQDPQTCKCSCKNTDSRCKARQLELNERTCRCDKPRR

recombinant human VEGF165 (PeproTech EC Ltd.) (human), sequence (P15692 other isoform, or with tags, fused parts or gaps limits assumed): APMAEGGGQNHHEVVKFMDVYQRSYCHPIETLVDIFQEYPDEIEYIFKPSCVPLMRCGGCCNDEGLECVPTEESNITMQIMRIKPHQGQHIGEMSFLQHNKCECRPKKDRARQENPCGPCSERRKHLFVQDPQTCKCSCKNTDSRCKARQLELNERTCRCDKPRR
recombinant human TNF (hTNF) (human), sequence (P01375 77-233 limits assumed): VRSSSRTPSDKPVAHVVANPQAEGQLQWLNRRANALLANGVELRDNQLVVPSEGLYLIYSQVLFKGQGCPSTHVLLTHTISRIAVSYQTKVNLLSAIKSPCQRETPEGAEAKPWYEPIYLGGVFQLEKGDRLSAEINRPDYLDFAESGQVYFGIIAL

Binder	L929* [EC50-E105 / EC50-X] [1]	other results
EP6_max (scFv, from another filing) scFv: EIVMTQSPSTLSASVGDRVIITCQASESIYSGLAWYQQKPGKAPKLLIYQASTLASGVPSRFSGSGSGTDFTLAISSLQPDDFATYYCQQGFGTSNVENPFGQGTKLTVLGGGGGSGGGGSGGGGSGGGGSEVQLVESGGGLVQPGGSLRLSCTVSGFSLSRYGVSWVRQAPGKGLEWVGTIGEAGRAYYANWARSRSTISRDTSKNTVYLQMNSLRAEDTAVYYCARGEVFNNGWGAFNIWGQGTLVTVSS	1.1	
EP15_max (scFv, from another filing) scFv: EIVMTQSPSTLSASVGDRVIITCQASENIYTSLAWYQQKPGKAPKLLIYSASTLASGVPSRFSGSGSGTEFTLTISSLQPDDFATYYCQQGFATSNVENPFGQGTKLTVLGGGGGSGGGGSGGGGSGGGGSEVQLVESGGGSVQPGGSLRLSCTVSGFSLSRYGVSWVRQAPGKGLEWVGAIGETGRAYYANWAKSRSTISRDTSKNTVYLQMNSLRAEDTATYYCARGEEFNNGWGAFNIWGQGTTVTVSS	0.39	
509-maxll (scFv, from another filing) scFv: EIVMTQSPSTLSASVGDRVIITCQASQNIRIWLSWYQQKPGKAPKLLIYKASTLESGVPSRFSGSGSGTEFTLTISSLQPDDFATYYCQNNAHYSTNGGTFGQGTKLTVLGGGGGSGGGGSGGGGSGGGGSEVQLVESGGGLVQPGGSLRLSCTASGFSLSSYYMSWVRQAPGKGLEWVGILDYVGDTDYASWAKGRFTISKDASKNTVYLQMNSLRAEDTAVYYCARTDDSRGWGLNIWGQGTLVTVSS		Kd [2]: 3.37 nM; koff [2]: 0.00282 s⁻¹; kon [2]: 838000 M⁻¹ s⁻¹; Rel. activity hVEGR1 comp. ELISA (EC50Luc[nM]/EC50test[nM]) [3]: 0.09

The next lines start with results.

L929* [EC50-E105 / EC50-X] [1]	Binder	other results
6.4	EP43_max (scFv, from another filing) scFv: EIVMTQSPSTLSASVGDRVIIKCQASQSISDWLAWYQQKPGKAPKLLIYGASRLASGFPSRFSGSGSGAEFTLTISGLEPADFATYYCQQGWSDSYVDNLFGQGTKLTVLGGGGGSGGGGSGGGGSGGGGSEVQLVESGGGLVQPGGSLRLSCTVSGFSLSSGAMSWVRQAPGKGLEWVGVIISSGATYYASWAKGRFTISKDTSKNTVYLQMNSLRAEDTAVYYCARGGPDDSNSMGTFDPWGQGTLVTVSS	
10.5	EP34_max (scFv, from another filing) scFv: EIVMTQSPSTLSASLGDRVIITCQSSQSVYGNIWMAWYQQKSGKAPKLLIYQASKLASGVPSRFSGSGSGAEFSLTISSLQPDDFATYYCQGNFNTGDRYAFGQGTKLTVLGGGGGSGGGGSGGGGSGGGGSEVQLVESGGGLVQPGGSLRLSCTASGFTISRSYWICWVRQAPGKGLEWVACIYGDNDITPLYANWAKGRFPVSTDTSKNTVYLQMNSLRAEDTAVYYCARLGYADYAYDLWGQGTLVTVSS	
5.2	EP35_max (scFv, from another filing) scFv: EIVMTQSPSTLSASVGDRVIITCQASQSISNLLAWYQQKPGKAPKLLIVAASKLASGVPSRFSGSGSGTEFTLTISSLQPDDFATYYCQQGWSHTNVDNTFGQGTKLTVLGGGGGSGGGGSGGGGSGGGGSEVQLVESGGGSVQPGGSLRLSCTASGFSFSVGYWICWVRQAPGKGLEWVACIDAGTSGGTYYATWAKGRFTISKDTSKNTVYLQMNSLRAEDTATYYCARGVSSNGYYFKLWGQGTTVTVSS	
